Measurements taken from paper PMC3434267.

How the values were obtained:
[1] = target: mGluR5 (endogenous, mouse) (mouse (endogenous in brain, spinal cord and cultured cortical neurons)) (UniProt Q3UVX5); assay: co-IP
[2] = target: Homer (pan-Homer immunoprecipitation), DIV 14 cortical neurons (Figure 5c) (mouse (endogenous in cultured cortical neurons)); assay: co-IP

| co-IP in Preso1^−/− brain, % of WT [1] | co-IP in BDNF-treated Preso1^−/− neurons, % of untreated WT [2] [%] | co-IP in DHPG-treated Preso1^−/− neurons, % of untreated WT [2] [%] | co-IP in WT neurons after BDNF 30 min, % of untreated [2] [%] | co-IP in WT neurons after DHPG 30 min, % of untreated (% of untreated) [2] | co-IP in untreated Preso1^−/− neurons, % of untreated WT (BDNF series) [2] [%] | co-IP in untreated Preso1^−/− neurons, % of untreated WT (DHPG series) [2] [%] | Substance |
| --- | --- | --- | --- | --- | --- | --- | --- |
| 64.4 % of WT |  |  |  |  |  |  | ERK1/2, mouse forebrain (Figure 5b) |
|  | 69.8 | 54 | 158 | 157 | 65.3 | 47 | mGluR5 (endogenous, mouse) (from UniProt Q3UVX5 19-1203) (receptor) |
